From the nanobody polyreactivity screen of Harvey et al. (2022)

Assay: yeast display, Sf9 membrane polyspecificity reagent, FACS + sequencing; frameworks hold sequencing errors
Procedure, shortened: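 Genes from sorted yeast were amplified by colony PCR, read by MiSeq 2 × 250 sequencing and filtered on CDR length. These cells carried a synthetic nanobody library in Saccharomyces cerevisiae BJ5465 and were sorted by FACS into low and high (top ~1%) gates on anti-HA and streptavidin fluorescence. Polyreactivity is labelled according to the gate of origin.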

Sequence | polyreactivity (PSR sort gate)
QVQLVESGGGLVQAGGSLRLSCAASGRTFGPYVMGWYRQAPGKERELVAAISFSGGSTYYADSVKGRFTISRDNAKNTVYLQMNSLKPEDTAVYYCAAPATRPYYTGYDYWGQGTQVTVSS | high polyreactivity
QVQLVESGGGLVQAGGSLRLSCAASGRTFRLNAMGWYRQAPGKERELVARITGSSGGSTYYADSVKGRFTISRDNAKNTVYLQMNSLKPEDTAVYYCNKRVGFLYKYDYWGQGTQVTVSS | high polyreactivity
QVQLVESGGGLVQAGGSLRLSCAASGSIFWIYAMVWSRQAPGKERELVAVISDRGARTYYADSVKGRFTLSRDNAKNTVYLQMNSLKPEDTAVYYCNADTRQARLQKMDSWGQGTQVTVSS | high polyreactivity
QVQLVESGGGLVQAGGSLRISCAASVSTFDINTMGWYRQAPGKEREFVAAITDSDDSTYYADSVKGRFTISRDNAKNTVYLQMNSLKPEDSAVYYCAADRSHAYYRKNRVDYWGQGTQVTVSS | low polyreactivity
QVQLVESAGGLVQAGGSLRLSCAASGFTFVYYVMGWYRQAPGKERELVAAINAGGGSTYYADSVKGRFTISRDNAKNTVYLQMNSLIPEDTAVYYCIARVRVRLGRNWSSYYDWGQCTQVTVSS | high polyreactivity
QVQLVESGGGLVQAGGSLRLSCAASGRTFRYNAMGWYRQAPGKERELVAGITYNGGSTSYADSVKGRFTISRDNAKNTVYLQMNSLKPEDTAVYYCNVVYNYYGRFGSWGQGTQVTVSS | high polyreactivity
QVQLVESGGGLVQAGGSLRLSCAASGRTFPYNAMGWYRQATGKERELVATINTSGASTSYADSVKRRFTISRDNEKNTVYLQMNSLKPEVTAVYYCNRDRRYYHRFDYWGQGTQVTVSS | low polyreactivity
QVQLVESGGGLVQAGGSLRLSCAASGRTFKINAMGWYRQAPGKERELVATITGRGASTYYADSVKGRFTISRDNAKNTVYLQMNSLKPEDTAVYYCAARTEVPTRYNYWGQGTQVTVSS | high polyreactivity
QLQLVESGGGLVQAGGSLRLTCAASGSIFNDNAMGWYRPAPVKERELVAPINSDGSTYYADSVKGRFTISRDNAKNTVYLQMNSLKPEDTAVYYCNADTLLDNFTWDADGYDYWGQGTHVTVSS | low polyreactivity
QVQLVESGGGLVQAGGSLRLSCAASGSIFSYYAMGWYRQAPGKERELVAAISWSGGRTYYADSVKGRFTISRDNAKNTVYLQMNSLKPEDTAVYYCNVDVYVVPHYDYWGQGTQVTVSS | high polyreactivity
QVQLVESGGGLVQAGGSLRLSFAASGLNFRVYAMGWYTQAPGTERELVAAISRGGSTYYADSVKGRFTISRDNAKNTVYLQMNSLKPEDTAVYYCAAVFVHRGYYYWGQGTQVTVSS | high polyreactivity
QVQLVESGGGLVQAGGSLRLSCAASGRTFAYYAMGWYRQAPGKERELVAAIDSSGGDTYYADSVKGRFTISRDNAKNTVYLQMNSLKPEDTAVYYCAADYYWEMDSWGQGTQVTVSS | low polyreactivity
QVQHVESVGGLVQAGGSLRLSCAASGSIFDDYAMGWYRPAPGKERELVAAISSSGTSTYYADSVKGRFTISRDNAKNTVYLQMNSLKPEDTAVYYCAARSAILKSGYLMDYWGQGTQVTVSS | low polyreactivity
QVQLVESGGGLVQAGGSLRLSCAASGFISAGYAMGWYRQAPGKERELVAAISRRGGRTYYADSVKGRFTISRDNAKNTVYLQLNSLKPEDTAVYYCAAGSPHSAFAGPYDYWGQGTQVTVSS | high polyreactivity
QVQLVESGGGLVQAGGSLRLSCAASGSTLYAYAMGWYRQAPGKERELVAAISFSTTSTYYADSVKGRFTISRDNAKNTVYLQMNSLKPEVTAVYYCAAEYWYYWEYEYWGQGTQVTVSS | high polyreactivity
QDHLVESGGGLVQAGGSLRLTCAASGSIFISYAMGWYRQAPGKERELVAAISIRGTRTYYADSVKGRFTISRDNAKNTVSLQMNSLKPEDTAVYFCAADASYTEGMDYWGQGTQVTVSS | high polyreactivity
QVQLVESGGGLVQAGGSLRLSCAASGNTFSNYAMGWYRQAPGKEREFVAAIRKSGASTYYADSVKGRFTISRDNAKNSVYLQMNSLKPEDTAVYYCAADGQVSFALGFDYWGQGTQVTVSS | high polyreactivity
